Patent US20100143268A1, “Formulations for Delivery Via Pressurised Metered Dose Inhalers Comprising an Essential Oil as Suspension Stabiliser” (priority 2006, published 2010)

Assays:
[1] = Integrity of insulin by GPC, HPLC, circular dichroism and fluorescence spectroscopy; type: physicochemical
Procedure: The formulations were also assessed for the integrity of insulin using gel permeation chromatography (GPC), high performance liquid chromatography (HPLC), circular dichroism and fluorescence spectroscopy.

[2] = Tong et al, Pharm. Res. (2001) 18, 852-858; cited from earlier work

Molecule | chemical degradation of insulin during the formulation process ([1]; GPC and HPLC chromatograms compared to standard insulin) | secondary structures of insulin after processing ([1]; far-UV circular dichroism, from the nanoparticles after delivery from the pMDI vs unprocessed control) | tertiary structures of insulin after processing ([1]; near-UV CD, peak around 275 nm, confirmed by fluorescence spectra) | aqueous solubility [2] [µg/mL]
insulin | not chemically degraded | retained | retention | 
OCc1cc(C(O)CNCCCCCCOCCCCc2ccccc2)ccc1O (stereo not shown) [SX, Salmeterol Xinafoate] |  |  |  | 66 to 81
